Our source for the H-2Kb-positive cells values is publication doi:10.1101/2024.05.07.593072.

For the test, the target named is H-2Kb MHC class 1 molecule on RMA-S cells (mouse (endogenous in RMA-S)). Briefly: peptide-induced MHC stabilisation assay.

On to “OVA peptide (SIINFEKL) synthesized with PCR-IVTT reaction”, for which the H-2Kb-positive cells is 55.3%.
